Reference: paper PMC3003642, “DPI-ELISA: a fast and versatile method to specify the binding of plant transcription factors to DNA in vitro”

What was measured:
AtbZIP63 = target: T1, AtbZIP63 (Arabidopsis thaliana, UniProt B9DGI8 1-314); assay: EMSA; DPI-ELISA: 2 pmol ds-bio DNA per well, crude E. coli extract in protein extraction buffer (HEPES, 100 mM salt per Additional file 1), 1 h, PBS-T washes pH 7.5; conditions: protein: recombinant; tags: C-terminal V5:His; chain copies: 2; label: 5' biotin (DPI-ELISA); 33P (EMSA)
T1 sequence: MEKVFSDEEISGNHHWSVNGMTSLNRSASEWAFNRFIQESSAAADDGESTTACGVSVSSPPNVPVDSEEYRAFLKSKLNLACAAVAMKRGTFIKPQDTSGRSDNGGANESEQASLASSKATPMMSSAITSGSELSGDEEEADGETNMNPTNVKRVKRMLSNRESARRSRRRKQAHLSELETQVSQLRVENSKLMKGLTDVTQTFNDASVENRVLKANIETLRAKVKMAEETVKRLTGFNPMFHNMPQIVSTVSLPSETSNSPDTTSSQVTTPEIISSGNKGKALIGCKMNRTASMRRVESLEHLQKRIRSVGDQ

AtWRKY50DBD = AtWRKY50DBD (Arabidopsis thaliana, UniProt Q8VWQ5 99-173); assay: DPI-ELISA; not corrected for protein concentration in extract; DPI-ELISA: 2 pmol ds-bio DNA per well, crude E. coli extract in protein extraction buffer (HEPES, 100 mM salt per Additional file 1), 1 h, PBS-T washes pH 7.5; conditions: protein: recombinant; tags: C-terminal V5:His; label: 5' biotin (DPI-ELISA); 33P (EMSA)
Sequence of AtWRKY50DBD (Q8VWQ5 99-173): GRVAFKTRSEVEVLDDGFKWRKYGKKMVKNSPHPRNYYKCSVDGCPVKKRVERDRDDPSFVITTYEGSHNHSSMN

AtWRKY75DBD = AtWRKY75DBD (Arabidopsis thaliana, UniProt Q9FYA2 58-145); assay: DPI-ELISA; up to 100 ug crude extract (data not shown); DPI-ELISA: 2 pmol ds-bio DNA per well, crude E. coli extract in protein extraction buffer (HEPES, 100 mM salt per Additional file 1), 1 h, PBS-T washes pH 7.5; conditions: protein: recombinant; tags: C-terminal V5:His; label: 5' biotin (DPI-ELISA); 33P (EMSA)
Sequence of AtWRKY75DBD (Q9FYA2 58-145): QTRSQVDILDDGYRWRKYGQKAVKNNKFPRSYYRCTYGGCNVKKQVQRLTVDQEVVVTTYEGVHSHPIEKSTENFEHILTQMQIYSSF

AtWRKY33cDBD [1] = target: T2, AtWRKY33cDBD (Arabidopsis thaliana, UniProt Q8S8P5 346-449); assay: DPI-ELISA; DPI-ELISA: 2 pmol ds-bio DNA per well, crude E. coli extract in protein extraction buffer (HEPES, 100 mM salt per Additional file 1), 1 h, PBS-T washes pH 7.5; conditions: protein: recombinant; tags: C-terminal V5:His; label: 5' biotin (DPI-ELISA); 33P (EMSA)
T2 sequence (Q8S8P5 346-449): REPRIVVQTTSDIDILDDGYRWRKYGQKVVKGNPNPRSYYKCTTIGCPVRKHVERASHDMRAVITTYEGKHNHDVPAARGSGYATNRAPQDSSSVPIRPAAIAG

AtWRKY11DBD [2] = target: T3, AtWRKY11DBD (Arabidopsis thaliana, UniProt Q9SV15 229-325); assay: EMSA; DPI-ELISA: 2 pmol ds-bio DNA per well, crude E. coli extract in protein extraction buffer (HEPES, 100 mM salt per Additional file 1), 1 h, PBS-T washes pH 7.5; conditions: protein: recombinant; tags: C-terminal V5:His; label: 5' biotin (DPI-ELISA); 33P (EMSA)
T3 sequence (Q9SV15 229-325): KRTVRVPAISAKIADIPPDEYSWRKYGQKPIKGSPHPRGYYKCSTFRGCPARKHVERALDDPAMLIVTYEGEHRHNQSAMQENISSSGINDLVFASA

AtWRKY33cDBD [3] = target: T2, AtWRKY33cDBD; assay: DPI-ELISA; also at higher protein amounts (data not shown); DPI-ELISA: 2 pmol ds-bio DNA per well, crude E. coli extract in protein extraction buffer (HEPES, 100 mM salt per Additional file 1), 1 h, PBS-T washes pH 7.5; conditions: protein: recombinant; tags: C-terminal V5:His; label: 5' biotin (DPI-ELISA); 33P (EMSA)
AtBPC2 [4] = target: T4, AtBPC2 (Arabidopsis thaliana, UniProt Q9LDE2 1-279); assay: DPI-ELISA; DPI-ELISA: 2 pmol ds-bio DNA per well, crude E. coli extract in protein extraction buffer (HEPES, 100 mM salt per Additional file 1), 1 h, PBS-T washes pH 7.5; conditions: protein: recombinant; tags: N-terminal His (pET32b-GW); label: 5' biotin
T4 sequence: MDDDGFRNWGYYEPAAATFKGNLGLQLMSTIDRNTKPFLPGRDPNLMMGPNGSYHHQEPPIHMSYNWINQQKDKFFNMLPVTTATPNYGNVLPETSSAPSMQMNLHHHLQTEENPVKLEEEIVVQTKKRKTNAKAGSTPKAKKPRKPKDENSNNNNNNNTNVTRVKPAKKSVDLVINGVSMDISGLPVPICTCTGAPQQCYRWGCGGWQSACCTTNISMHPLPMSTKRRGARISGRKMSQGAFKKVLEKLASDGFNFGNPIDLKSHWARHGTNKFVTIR

AtBPC2 [5] = target: T4, AtBPC2; assay: competition DPI-ELISA; 100-1000 pmol competitor vs 2 pmol GABio; DPI-ELISA: 2 pmol ds-bio DNA per well, crude E. coli extract in protein extraction buffer (HEPES, 100 mM salt per Additional file 1), 1 h, PBS-T washes pH 7.5; conditions: protein: recombinant; tags: N-terminal His (pET32b-GW)
AtBPC2 [6] = target: T4, AtBPC2; assay: competition DPI-ELISA; 1000 pmol DNA reduced binding irrespective of sequence; DPI-ELISA: 2 pmol ds-bio DNA per well, crude E. coli extract in protein extraction buffer (HEPES, 100 mM salt per Additional file 1), 1 h, PBS-T washes pH 7.5; conditions: protein: recombinant; tags: N-terminal His (pET32b-GW)
AtWRKY11DBD [7] = target: T3, AtWRKY11DBD; assay: competition DPI-ELISA; up to 50 pmol competitor; DPI-ELISA: 2 pmol ds-bio DNA per well, crude E. coli extract in protein extraction buffer (HEPES, 100 mM salt per Additional file 1), 1 h, PBS-T washes pH 7.5; conditions: protein: recombinant; tags: C-terminal V5:His

B1: C-probe (C-box) (dsDNA)
DNA 1: AATTCTCCCTTATCTGACGTCAGCATCCGG
DNA 2: CCGGATGCTGACGTCAGATAAGGGAGAATT
binding result (AtbZIP63): binds

B2: W2-probe (W2Bio) (dsDNA)
DNA 1: AAATTATTCAGCCATCAAAAGTTGACCAATAAT
DNA 2: ATTATTGGTCAACTTTTGATGGCTGAATAATTT
binding signal (AtWRKY50DBD): > 2 fold absorbance vs AtWRKY33cDBD | binding result (AtWRKY75DBD): no binding | binding result (AtWRKY33cDBD [1]): binds

B3: W2m-probe (W2mBio) (dsDNA)
DNA 1: AAATTATTCAGCCATCAAAAGTTACCCAATAAT
DNA 2: ATTATTGGGTAACTTTTGATGGCTGAATAATTT
binding result (AtWRKY11DBD [2]): no binding | binding result (AtWRKY75DBD): no binding | binding result (AtWRKY33cDBD [3]): no binding

B4: GA-probe (GABio) (dsDNA)
DNA 1: TAAAGGAGAAAGAAAGAGAAAGAGAGTTTC
DNA 2: GAAACTCTCTTTCTCTTTCTTTCTCCTTTA
binding result (AtBPC2 [4]): binds

B5: GAm-probe (GAmBio) (dsDNA)
DNA 1: TAATGCAGCAAGTAAGACTACGACTGTTTC
DNA 2: GAAACAGTCGTAGTCTTACTTGCTGCATTA
binding result (AtBPC2 [4]): no binding

B6: GA-probe, non-biotinylated competitor (dsDNA)
DNA 1: TAAAGGAGAAAGAAAGAGAAAGAGAGTTTC
DNA 2: GAAACTCTCTTTCTCTTTCTTTCTCCTTTA
binding result (AtBPC2 [5]): binds

B7: GAm-probe, non-biotinylated competitor (dsDNA)
DNA 1: TAATGCAGCAAGTAAGACTACGACTGTTTC
DNA 2: GAAACAGTCGTAGTCTTACTTGCTGCATTA
binding result (AtBPC2 [6]): no binding

B8: Cm-probe (dsDNA)
DNA 1: AATTCTCCCTTATCTGCAGTCAGCATCCGG
DNA 2: CCGGATGCTGACTGCAGATAAGGGAGAATT
binding result (AtbZIP63): no binding

B9: W2m-probe, non-biotinylated competitor (dsDNA)
DNA 1: AAATTATTCAGCCATCAAAAGTTACCCAATAAT
DNA 2: ATTATTGGGTAACTTTTGATGGCTGAATAATTT
binding result (AtWRKY11DBD [7]): no binding
